In the supplement of paper PMC10126150:
± gives the standard deviation of the averaged measurements.

system: ATP; assay: switch fluorescence ratio, 500 uM ATP over buffer (Cy3 cluster intensity, sum of 5 cycles each) (fold (ratio)); higher = stronger signal-on switching upon ATP binding; sequences stand for … in TCGTCGGCAGCGTCAGATGTGTATAAGAGACAGTTTTTTTTTTTTTTTTTTTTTTTTT…TC; conditions: aptamer strand: ATP DNA aptamer (quencher-CACCTGGGGGAGTATTGCGGAGGAAGG + anchor), 100 nM annealed; ATP concentration: 500 uM
Outline: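 Clusters with intensities outside 100-1000 RFU were excluded. The remaining Cy3-labelled switching-strand clusters on a modified Illumina MiSeq flow-cell had been annealed to 100 nM quencher-labelled ATP aptamer and imaged in selection buffer, then after 15 min with 500 uM ATP at 22 °C, for five cycles separated by NaOH stripping and re-annealing. The fluorescence ratio, averaged per switch-domain sequence, is each cluster's summed target-cycle Cy3 intensity over its summed buffer-cycle Cy3 intensity.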
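Note: ATP exposure 15 min at 22 °C before imaging.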

Sequence | switch fluorescence ratio
TTTAGTTGCC | 0.984 ± 0.058
TTTATAAATG | 1.014 ± 0.0017
TTTATACGGT | 1.01 ± 0.005
TTTATAGAGT | 1.03 ± 0.029
TTTATAGGCG | 0.987 ± 0.023
TTTATAGGGA | 0.987 ± 0.015
TTTATAGGGC | 1.01 ± 0.021
TTTATAGGTG | 1.14 ± 0.089
TTTATATTAA | 1.03 ± 0.049
TTTATATTCT | 1.03 ± 0.074
TTTATATTTG | 1 ± 0.027
TTTATCAGCT | 0.9985 ± 0.0065
TTTATCGTTT | 1 ± 0.032
TTTATGGAAT | 0.998 ± 0.015
TTTATGGTCC | 1.02 ± 0.029
TTTATGGTTT | 1 ± 0.031
TTTATGTATT | 1 ± 0.022
TTTATGTGGA | 1.01 ± 0.027
TTTATTAGTT | 0.998 ± 0.025
TTTATTCAAG | 0.988 ± 0.021
TTTATTCGCG | 1.03 ± 0.029
TTTATTGCAT | 1.018 ± 0.0082
TTTATTTAAC | 1.052 ± 0.01
TTTATTTAGC | 1.02 ± 0.034
TTTATTTGAT | 0.9955 ± 0.0012

Sequence | switch fluorescence ratio
TTTATTTTCC | 1.05 ± 0.033
TTTCAAAAAT | 1.01 ± 0.044
TTTCAAATCT | 1.026 ± 0.0019
TTTCAAATGT | 1.11 ± 0.17
TTTCAAGGGG | 0.996 ± 0.011
TTTCAAGTAC | 1.49 ± 0.21
TTTCAATAAT | 0.988 ± 0.023
TTTCAATAGT | 1.09 ± 0.14
TTTCAATATT | 1.03 ± 0.031
TTTCAATCTG | 1.04 ± 0.038
TTTCAATGGT | 1 ± 0.045
TTTCACAAAG | 1 ± 0.018
TTTCACGCTC | 1.12 ± 0.21
TTTCACGGGA | 1.07 ± 0.066
TTTCACTATT | 1.01 ± 0.026
TTTCAGACAC | 1.02 ± 0.011
TTTCAGGTGT | 2.15 ± 0.98
TTTCAGTGAC | 1.04 ± 0.079
TTTCATAGTT | 0.954 ± 0.017
TTTCATATTT | 1.03 ± 0.014
TTTCATGGTA | 0.998 ± 0.0099
TTTCATTCGG | 1.06 ± 0.13
TTTCATTGGT | 1 ± 0.027
TTTCCAAACA | 1.01 ± 0.014
TTTCCAAGGT | 1.12 ± 0.11

Sequence | switch fluorescence ratio
TTTCCACGGG | 1.18 ± 0.025
TTTCCCGGCT | 1.04 ± 0.083
TTTCCCGTTT | 1.13 ± 0.095
TTTCCGTGAT | 1.918 ± 0.013
TTTCCTGACG | 1.06 ± 0.028
TTTCCTGGCT | 1.02 ± 0.032
TTTCCTTGAA | 0.974 ± 0.017
TTTCGAAGGT | 0.987 ± 0.019
TTTCGAATAT | 0.9836 ± 0.0061
TTTCGACGTC | 0.997 ± 0.12
TTTCGAGAGA | 1.02 ± 0.027
TTTCGAGTCA | 1 ± 0.03
TTTCGATTCT | 0.978 ± 0.029
TTTCGCCGTT | 1.003 ± 0.0055
TTTCGGAAAG | 0.967 ± 0.042
TTTCGGAACA | 1.001 ± 0.0066
TTTCGGAGAA | 0.962 ± 0.028
TTTCGGAGTG | 1.024 ± 0.0066
TTTCGGCGTT | 1.043 ± 0.0069
TTTCGGGTAC | 1.2 ± 0.22
TTTCGGGTGG | 0.979 ± 0.023
TTTCGGTGTG | 0.977 ± 0.0098
TTTCGTGCCT | 1.065 ± 0.0026
TTTCGTGGAG | 0.996 ± 0.02
TTTCGTGTGA | 1.015 ± 0.0062

Sequence | switch fluorescence ratio
TTTCGTTGCT | 0.994 ± 0.018
TTTCGTTGGT | 0.982 ± 0.016
TTTCTATGTA | 1.01 ± 0.024
TTTCTCGTAG | 0.991 ± 0.016
TTTCTCGTTG | 0.9908 ± 0.0074
TTTCTCTACG | 1.015 ± 0.0056
TTTCTGAGTT | 1.01 ± 0.032
TTTCTGCGGC | 1.046 ± 0.0017
TTTCTGGCAA | 1.32 ± 0.38
TTTCTGGCGA | 1.054 ± 0.01
TTTCTGGTCT | 1.03 ± 0.012
TTTCTGTATC | 1.04 ± 0.044
TTTCTGTTGT | 1.14 ± 0.16
TTTCTGTTTC | 1.04 ± 0.052
TTTCTGTTTT | 0.9913 ± 0.0088
TTTCTTATGT | 1.03 ± 0.024
TTTCTTCGCG | 1.027 ± 0.0032
TTTCTTGTTT | 0.985 ± 0.055
TTTGAAAACT | 0.995 ± 0.024
TTTGAACTTC | 1.27 ± 0.38
TTTGAAGAAC | 1.01 ± 0.056
TTTGAAGCAG | 1.08 ± 0.068
TTTGAAGTGG | 1.03 ± 0.03
TTTGAATTAA | 1.01 ± 0.049
TTTGAATTTG | 0.974 ± 0.023

Sequence | switch fluorescence ratio
TTTGACAAGC | 1.15 ± 0.18
TTTGACCCTA | 1.04 ± 0.019
TTTGACGGTT | 1.03 ± 0.015
TTTGACTGAG | 0.997 ± 0.023
TTTGAGAAAG | 0.992 ± 0.019
TTTGAGACGT | 1.02 ± 0.041
TTTGAGATTG | 0.99556 ± 0.00097
TTTGAGCTCT | 0.97 ± 0.014
TTTGAGCTGG | 0.996 ± 0.035
TTTGAGGGTC | 0.991 ± 0.037
TTTGAGGTTT | 1.01 ± 0.011
TTTGAGTAAA | 1.01 ± 0.019
TTTGAGTAAG | 1.02 ± 0.046
TTTGAGTTT | 0.981 ± 0.012
TTTGATAAAG | 1.03 ± 0.092
TTTGATACGG | 1 ± 0.028
TTTGATATAG | 0.994 ± 0.034
TTTGATCTTG | 1.01 ± 0.013
TTTGATGAGA | 1 ± 0.028
TTTGATGAGT | 1.01 ± 0.013
TTTGATGGGG | 0.988 ± 0.025
TTTGATGGTG | 1.04 ± 0.012
TTTGATTCAG | 1.04 ± 0.071
TTTGATTGCA | 1.03 ± 0.068
TTTGATTGCG | 1 ± 0.011

Sequence | switch fluorescence ratio
TTTGATTTTG | 0.989 ± 0.016
TTTGCAATTG | 1.13 ± 0.062
TTTGCACCAT | 1.03 ± 0.017
TTTGCAGAAC | 1.2 ± 0.15
TTTGCAGCGG | 1.02 ± 0.012
TTTGCCATTT | 1.02 ± 0.033
TTTGCCCAGA | 1.02 ± 0.041
TTTGCCCCTG | 1.03 ± 0.021
TTTGCCGAGT | 0.996 ± 0.044
TTTGCCGCCC | 1.145 ± 0.0012
TTTGCGACCT | 1.13 ± 0.066
TTTGCGATGG | 1.09 ± 0.011
TTTGCGGAGG | 1.27 ± 0.48
TTTGCGGGAT | 1.03 ± 0.014
TTTGCTACGG | 1.05 ± 0.013
TTTGCTAGAT | 1.047 ± 0.0097
TTTGCTATCA | 0.984 ± 0.013
TTTGCTGAAA | 0.964 ± 0.026
TTTGCTGGTA | 1.006 ± 0.0064
TTTGCTGGTC | 1.05 ± 0.025
TTTGCTTAGA | 1.04 ± 0.025
TTTGCTTGGG | 1.02 ± 0.033
TTTGGACATC | 1.02 ± 0.027
TTTGGACGCA | 1.12 ± 0.12
TTTGGACGGT | 1.015 ± 0.0099

Sequence | switch fluorescence ratio
TTTGGAGCAC | 1.6 ± 0.2
TTTGGAGGGG | 1.03 ± 0.039
TTTGGAGTGG | 0.998 ± 0.033
TTTGGATACG | 1.01 ± 0.011
TTTGGATGGG | 0.994 ± 0.012
TTTGGATTGT | 1.006 ± 0.0074
TTTGGATTTT | 1 ± 0.045
TTTGGCCCTT | 1.02 ± 0.027
TTTGGCCGTT | 1.2 ± 0.26
TTTGGCCTAC | 1.01 ± 0.02
TTTGGCTACG | 1.01 ± 0.011
TTTGGCTGAA | 1.01 ± 0.019
TTTGGCTTAG | 0.991 ± 0.029
TTTGGCTTGC | 1.01 ± 0.042
TTTGGCTTTC | 1.06 ± 0.016
TTTGGGAACT | 1 ± 0.021
TTTGGGACGC | 1.05 ± 0.088
TTTGGGAGTG | 0.965 ± 0.037
TTTGGGATGC | 1.07 ± 0.095
TTTGGGATGT | 1.02 ± 0.073
TTTGGGCCGC | 1.06 ± 0.05
TTTGGGCGGT | 1.04 ± 0.12
TTTGGGCTCC | 0.98 ± 0.018
TTTGGGGCTA | 1.05 ± 0.15
TTTGGGGGAA | 0.994 ± 0.046

Sequence | switch fluorescence ratio
TTTGGGGGG | 1.05 ± 0.046
TTTGGGGTAG | 0.977 ± 0.015
TTTGGGGTCA | 1 ± 0.016
TTTGGGGTG | 1.04 ± 0.022
TTTGGGTAAA | 1.02 ± 0.032
TTTGGGTATC | 0.982 ± 0.041
TTTGGGTGCG | 0.998 ± 0.04
TTTGGTAGCT | 0.9596 ± 0.0037
TTTGGTATGA | 0.9736 ± 0.0021
TTTGGTATGG | 0.997 ± 0.015
TTTGGTATGT | 1.03 ± 0.057
TTTGGTATTT | 0.984 ± 0.025
TTTGGTCGTG | 1.042 ± 0.0036
TTTGGTGACT | 1.018 ± 0.0063
TTTGGTGATT | 0.982 ± 0.025
TTTGGTGCGG | 0.985 ± 0.01
TTTGGTGGCA | 0.9992 ± 0.0099
TTTGGTGGGA | 0.972 ± 0.026
TTTGGTGGGT | 0.975 ± 0.012
TTTGGTGGTT | 1.03 ± 0.059
TTTGGTGTTG | 0.987 ± 0.022
TTTGGTTCTC | 0.977 ± 0.012
TTTGGTTGT | 0.972 ± 0.013
TTTGGTTGTG | 0.986 ± 0.018
TTTGGTTTAT | 0.982 ± 0.04
